Source: paper PMC7593272

Target: T1, response regulator Awo_c25920 (Reg) (Acetobacterium woodii) (UniProt H6LEQ6)
T1 sequence: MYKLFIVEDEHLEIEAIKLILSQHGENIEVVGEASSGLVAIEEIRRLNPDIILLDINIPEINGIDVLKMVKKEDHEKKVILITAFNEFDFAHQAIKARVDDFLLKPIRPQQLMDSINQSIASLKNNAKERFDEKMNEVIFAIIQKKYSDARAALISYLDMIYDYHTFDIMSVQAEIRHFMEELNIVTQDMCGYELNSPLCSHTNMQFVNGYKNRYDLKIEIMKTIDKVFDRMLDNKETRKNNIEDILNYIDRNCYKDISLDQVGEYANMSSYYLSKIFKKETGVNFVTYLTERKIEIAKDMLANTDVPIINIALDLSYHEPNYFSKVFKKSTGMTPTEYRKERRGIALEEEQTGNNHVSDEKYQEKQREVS
Assay: EMSA
Settings: EMSA in 12 ul buffer B: 50 mM Tris-HCl, 125 mM NaCl, 10 mM glycerol, 5 mM MgCl2, pH 7.8, 6% native PAGE in 1X TAE at 4 C, ethidium bromide stain

Sequence: CATAAAACTAAAAAAATAGTCAAAAAAGCAGAACAGGAAAACCTTAGGGTTAACCTGTTCTTTTTATACGTTAGAATTAGAAATGTGATTTTAAAGTACAGGTATTAGACAAAATATTACACTATGTTTTTATGGATAGAGACAAAAAACAGCGTTAGTAAAAGGTTTTCAAGGTGGTTTTAAGAAACAAACAATAATTTTATAAGAATAGCACAAGTAATTACCATAGCCTTTGAATTAAAATATAGTTAGTTCAGTAATAAAATCTTGTAATTAAGGAGGATAGAGCTT (double strand) [291 bp intergenic region upstream of pduA]
- binding: binds
